The values that follow are results of earlier work, collected in publication PMC6128780.

In the series the target is Fibronectin (Homo sapiens) (UniProt P02751).
UniProt P02751, sequence (P02751 32-2477): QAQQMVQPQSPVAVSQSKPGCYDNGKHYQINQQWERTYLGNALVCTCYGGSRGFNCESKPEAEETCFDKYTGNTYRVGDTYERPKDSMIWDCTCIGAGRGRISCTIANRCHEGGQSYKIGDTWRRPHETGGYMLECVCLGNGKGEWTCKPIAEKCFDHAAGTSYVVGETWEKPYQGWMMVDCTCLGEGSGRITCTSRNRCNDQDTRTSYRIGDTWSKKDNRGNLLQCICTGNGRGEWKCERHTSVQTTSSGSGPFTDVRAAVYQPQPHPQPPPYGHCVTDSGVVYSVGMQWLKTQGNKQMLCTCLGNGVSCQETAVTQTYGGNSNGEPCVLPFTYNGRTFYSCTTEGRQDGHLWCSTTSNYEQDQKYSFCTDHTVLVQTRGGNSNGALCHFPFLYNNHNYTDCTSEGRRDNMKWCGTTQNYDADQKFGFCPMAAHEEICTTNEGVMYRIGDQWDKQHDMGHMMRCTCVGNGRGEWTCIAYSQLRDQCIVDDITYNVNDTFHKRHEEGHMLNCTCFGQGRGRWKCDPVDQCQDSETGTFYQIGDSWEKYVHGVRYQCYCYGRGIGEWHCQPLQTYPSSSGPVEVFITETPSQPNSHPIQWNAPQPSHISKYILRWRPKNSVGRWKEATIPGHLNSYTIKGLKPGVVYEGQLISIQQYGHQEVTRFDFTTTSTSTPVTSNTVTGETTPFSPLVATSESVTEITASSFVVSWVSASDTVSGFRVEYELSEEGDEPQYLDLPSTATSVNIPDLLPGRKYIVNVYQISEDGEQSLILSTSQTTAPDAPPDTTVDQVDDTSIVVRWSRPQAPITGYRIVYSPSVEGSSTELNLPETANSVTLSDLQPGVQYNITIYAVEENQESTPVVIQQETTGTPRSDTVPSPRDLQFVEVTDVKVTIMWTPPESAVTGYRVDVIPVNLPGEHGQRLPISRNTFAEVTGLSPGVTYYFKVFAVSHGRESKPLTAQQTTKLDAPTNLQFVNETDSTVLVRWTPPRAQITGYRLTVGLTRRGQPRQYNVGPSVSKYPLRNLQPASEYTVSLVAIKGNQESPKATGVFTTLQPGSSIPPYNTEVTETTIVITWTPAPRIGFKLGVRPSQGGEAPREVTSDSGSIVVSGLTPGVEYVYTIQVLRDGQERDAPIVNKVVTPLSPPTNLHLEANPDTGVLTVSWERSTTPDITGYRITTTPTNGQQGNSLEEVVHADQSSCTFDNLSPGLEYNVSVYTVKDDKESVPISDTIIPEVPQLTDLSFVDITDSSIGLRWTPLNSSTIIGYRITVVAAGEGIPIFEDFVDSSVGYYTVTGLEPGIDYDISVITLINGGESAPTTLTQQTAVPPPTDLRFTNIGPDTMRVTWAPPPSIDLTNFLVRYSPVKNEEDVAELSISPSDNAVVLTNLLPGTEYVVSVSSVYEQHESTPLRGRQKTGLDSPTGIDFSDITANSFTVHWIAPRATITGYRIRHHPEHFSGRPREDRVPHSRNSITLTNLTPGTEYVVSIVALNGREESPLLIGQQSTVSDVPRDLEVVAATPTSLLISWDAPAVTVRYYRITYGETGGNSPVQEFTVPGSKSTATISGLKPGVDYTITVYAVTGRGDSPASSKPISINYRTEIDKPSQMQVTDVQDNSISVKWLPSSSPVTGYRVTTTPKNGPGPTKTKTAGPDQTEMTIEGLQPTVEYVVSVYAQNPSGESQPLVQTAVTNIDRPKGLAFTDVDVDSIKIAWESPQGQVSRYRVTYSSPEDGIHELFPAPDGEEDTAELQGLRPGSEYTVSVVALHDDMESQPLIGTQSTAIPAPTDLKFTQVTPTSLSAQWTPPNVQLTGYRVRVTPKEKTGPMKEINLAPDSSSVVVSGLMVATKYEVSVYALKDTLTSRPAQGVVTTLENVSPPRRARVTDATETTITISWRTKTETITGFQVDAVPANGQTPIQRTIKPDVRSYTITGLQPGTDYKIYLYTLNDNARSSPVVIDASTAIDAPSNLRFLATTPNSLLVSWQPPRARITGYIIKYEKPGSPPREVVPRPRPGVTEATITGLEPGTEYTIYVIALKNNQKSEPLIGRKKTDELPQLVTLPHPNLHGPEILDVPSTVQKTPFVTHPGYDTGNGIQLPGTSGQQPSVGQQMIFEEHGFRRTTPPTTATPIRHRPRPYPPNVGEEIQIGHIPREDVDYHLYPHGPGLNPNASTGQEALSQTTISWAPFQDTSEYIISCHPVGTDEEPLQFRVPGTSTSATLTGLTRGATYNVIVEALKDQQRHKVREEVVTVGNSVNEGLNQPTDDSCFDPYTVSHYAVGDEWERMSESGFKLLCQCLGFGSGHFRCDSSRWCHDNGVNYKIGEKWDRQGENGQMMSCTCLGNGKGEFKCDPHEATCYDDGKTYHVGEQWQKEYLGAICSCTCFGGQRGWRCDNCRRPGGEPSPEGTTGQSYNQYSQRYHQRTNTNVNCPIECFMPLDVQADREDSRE

For “Carcinoembryonic antigen (CEA) IgV-like N domain (from UniProt P06731)”, the Kd – broadly, the concentration at which binding is half-saturated – was 16 nM.
